Data set [1] concerns the molecule itself. The data set can be described thus: size-exclusion chromatography with multiangle light scattering (self-association in solution, disulfide-linked dimers). A general note: In gel filtration, larger molecules generally elute earlier.
Data set [2] deals with the molecule itself. Put plainly: TEM, uranyl acetate stain (self-assembly into a 2D lattice). The source says: Multiple domains of the WT-BslA lattice could be observed in any location on the grid. The observed domain areas varied from as small as 1000 nm² (˜50 BslA molecules) up to 200000 nm² (>10000 BslA molecules). Less ordered “inter-domain” areas were also observed. […] The largest BslA-L77K domain size observed was approximately […] (1250 BslA molecules).

Consider 2 proteins from patent publication US20170267730A1 (UNIVERSITY COURT OF THE UNIVERSITY OF EDINBURGH, published 2017).

B1: WT-BslA truncated, BslA42-181 (other)
chain: MRTQSTASLFATITGASKTEWSFSDIELTYRPNTLLSLGVMEFTLPSGFTANTKDTLNGNALRTTQILNNGKTVRVPLALDLLGAGEFKLKLNNKTLPAAGTYTFRAENKSLSIGNKFYAEASIDVAKRSTPPTQPCGCN
notes: In solution it is a mix of monomers and disulfide-linked dimers; also called wild-type biofilm-surface layer protein A; YuaB
As for B1, in data set [1], the binding result is “binds”.

B2: BslA-L77K truncated (other)
chain: MRTQSTASLFATITGASKTEWSFSDIELTYRPNTLKSLGVMEFTLPSGFTANTKDTLNGNALRTTQILNNGKTVRVPLALDLLGAGEFKLKLNNKTLPAAGTYTFRAENKSLSIGNKFYAEASIDVAKRSTPPTQPCGCN
notes: also called L77K BslA; L77K-BslA
As for B2, the binding result in data set [2] is recorded as “binds”.
